{"source": "patent US20220332804A1", "about": "(CSL INNOVATION, published 2022)", "binders": {"B1": {"name": "RF16-214 (antibody, V domains shown)", "VH": "EVQLLESGGGLVQPGGSLRLSCAASGFTFSWYQMMWVRQAPGKGLEWVSRIYPSGGGTAYADSVKGRFTISRDNSKNTLYLQMNSLRAEDTAVYYCARDAGYGDNWGQGTLVTVSS", "VL": "QSALTQPPSVSVSPGQTASITCSGDKLGEKYASWYQQKAGQSPVMVIYQDRKRPSGIPERFSGSNSGNTATLTISGTQAMDEADYYCQAWDTRAVVFGGGTKLTVLG"}}, "test_in_all_cases": "SPR; KD relative to WT C2;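 further: biacore SPR at 37 °C, anti-C2 mAbs captured on an anti-human IgG chip, alanine or serine C2 surface mutants tested, KD from 1:1 fit compared with wild-type C2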", "key": {"human C2 S278A": {"target": "T1, human C2 S278A (human, UniProt P06681 21-752)", "T1 sequence": "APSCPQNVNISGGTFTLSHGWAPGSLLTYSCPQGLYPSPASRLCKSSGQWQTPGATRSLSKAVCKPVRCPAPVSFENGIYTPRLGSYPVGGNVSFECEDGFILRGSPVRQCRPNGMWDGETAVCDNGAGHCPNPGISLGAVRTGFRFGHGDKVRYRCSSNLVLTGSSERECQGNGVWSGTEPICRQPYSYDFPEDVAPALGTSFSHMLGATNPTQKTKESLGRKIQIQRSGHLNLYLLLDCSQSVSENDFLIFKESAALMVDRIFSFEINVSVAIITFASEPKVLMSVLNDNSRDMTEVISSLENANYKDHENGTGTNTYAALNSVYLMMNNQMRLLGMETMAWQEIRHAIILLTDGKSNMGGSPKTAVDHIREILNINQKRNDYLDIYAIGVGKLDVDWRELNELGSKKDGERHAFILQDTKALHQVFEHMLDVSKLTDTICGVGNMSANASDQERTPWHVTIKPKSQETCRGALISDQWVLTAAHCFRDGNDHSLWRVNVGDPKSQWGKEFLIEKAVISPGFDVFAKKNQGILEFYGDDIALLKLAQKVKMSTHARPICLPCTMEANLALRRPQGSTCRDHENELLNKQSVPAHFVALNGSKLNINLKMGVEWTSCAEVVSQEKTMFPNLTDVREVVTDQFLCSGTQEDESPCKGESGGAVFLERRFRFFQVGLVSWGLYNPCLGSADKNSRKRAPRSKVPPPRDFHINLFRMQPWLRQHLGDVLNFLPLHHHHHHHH"}, "human C2 N380A": {"target": "T2, human C2 N380A (human, UniProt P06681 21-752)", "T2 sequence": "T1 sequence with A258S, N360A"}, "human C2 L439A": {"target": "T3, human C2 L439A (human, UniProt P06681 21-752)", "T3 sequence": "T1 sequence with A258S, L419A"}, "human C2 F689A": {"target": "T4, human C2 F689A (human, UniProt P06681 21-752)", "T4 sequence": "T1 sequence with A258S, F669A"}}, "note": "Residue numbers refer to the chain shown, from its start."}
{"binder": "B1", "values": [{"measurement": "Fold diff", "setting": "human C2 S278A", "result": 1, "unit": "fold"}, {"measurement": "Fold diff", "setting": "human C2 N380A", "result": 2, "unit": "fold"}, {"measurement": "Fold diff", "setting": "human C2 L439A", "result": 42, "unit": "fold"}, {"measurement": "Fold diff", "setting": "human C2 F689A", "result": 1, "unit": "fold"}]}
